This is an account of results in patent US20240043507A1 (RQ BIOTECHNOLOGY, published 2024).

The target of assay [1] is T1, SARS-CoV-2 receptor binding domain (RBD), native (SARS-CoV-2, UniProt P0DTC2 330-532).
T1 construct: range 330-532
Description: BLI, Fab and RBD.

Assay [2] deals with SARS-CoV-2 spike receptor binding domain (native RBD) (SARS-CoV-2, UniProt P0DTC2 330-532).
The target in assay [3] is T2, SARS-CoV-2 spike receptor binding domain, native (SARS-CoV-2, UniProt P0DTC2 330-532).
T2 construct: range 330-532
Description: BLI, RBD on AR2G biosensor, mAb as analyte. Background: Biolayer interferometry detects binding as a change in optical thickness at a sensor tip.

B1: Fab 175 (Fab, V domains shown)
VH: EVQLVESGGGLIQPGGSLRLSCAASGLTVSRNYMSWVRQAPGKGLEWVSLIYSGGSTYYADSVKGRFTISRDNSKNTLYLQMNSLRAEDTAVYYCARDLRGEVWGQGTMVTVSS
VL: not shown
As usually defined, the Kd is a measure of binding affinity in units of concentration. The low end stands for a tighter complex, the high end for a looser complex. For B1, in assay [1], the Kd came out at 2.4 nM.

B2: antibody 175 (antibody, V domains shown)
VH: EVQLVESGGGLIQPGGSLRLSCAASGLTVSRNYMSWVRQAPGKGLEWVSLIYSGGSTYYADSVKGRFTISRDNSKNTLYLQMNSLRAEDTAVYYCARDLRGEVWGQGTMVTVSS
VL: not shown
B2 displayed a Kd in assay [2] of 0.97 nM.

B3: antibody 269 (antibody, V domains shown)
VH: QVQLVESGGGLIQPGGSLRLSCAASGLTVNRNYMSWIRQAPGKGLEWVSVIYSGGSTFYADSVKGRFTISRDNSKNTLSLQMNSLRAEDTAIYYCARDFYEGSFDIWGQGTMVTVSS
VL: AIQLTQSPSFLSASIGDRVTITCRASQGISSYLAWYQQKPGKAPKLLIYAASTLQSGVPSRFSGSGSGTEFTLTISSLQPEDFASYYCQQLNSYPAPVFGPGTKVDIK
Turning to B3, the dissociation constant Kd in assay [2] amounted to 1.59 nM.

B4: Fab 269 (Fab, V domains shown)
VH: QVQLVESGGGLIQPGGSLRLSCAASGLTVNRNYMSWIRQAPGKGLEWVSVIYSGGSTFYADSVKGRFTISRDNSKNTLSLQMNSLRAEDTAIYYCARDFYEGSFDIWGQGTMVTVSS
VL: AIQLTQSPSFLSASIGDRVTITCRASQGISSYLAWYQQKPGKAPKLLIYAASTLQSGVPSRFSGSGSGTEFTLTISSLQPEDFASYYCQQLNSYPAPVFGPGTKVDIK
notes: also called 269 Fab; COVOX-269 Fab
As to B4, the dissociation constant Kd in assay [1] was 2.2 nM.

B5: Fab 278 (Fab, V domains shown)
VH: QVQLVQSGAEVKKPGASVKVSCKASGYIFIRYGISWVRQAPGQGLEWMGWISANNGYTNYAQKLQGRVTMTTDTSTSTAYMELRSLRSDDTAVYYCARDGGILTGYLDYFDHWGQGTLVTVSS
VL: DIQMTQSPSSLSASVGDRLTITCRASQSIASYLNWYQQKPGKAPKLLIYAASSLQSGVPSRFSGSGSGTDFTLTISSLQPEDFATYHCQQSYSTLGITFGPGTKVDIK
As to B5, the dissociation constant (Kd) in assay [1] was 3 nM.

B6: antibody 318 (antibody, V domains shown)
VH: QVQLVQSGPEVKKPGTSVKVSCKASGFTLTSSAMQWVRQARGQRLEWIGWIVVGSGNTNYAQKFQERVTITRDMSTSTAYMELSSLRSEDTAVYYCAAGRGYNSDFDYWGQGTLVTVSS
VL: AIRMTQSPGTLSLSPGERATLSCRASQSVSSSYLAWYQQRPGQAPRLLIYGTSSRATGIPDRFSGSGSGTDFTLTISRLEPEDFAVYYCQQYGYSVYTFGQGTKVDIK
B6 gave a Kd in assay [2] of 2.23 nM.

B7: Fab 318 (Fab, V domains shown)
VH: QVQLVQSGPEVKKPGTSVKVSCKASGFTLTSSAMQWVRQARGQRLEWIGWIVVGSGNTNYAQKFQERVTITRDMSTSTAYMELSSLRSEDTAVYYCAAGRGYNSDFDYWGQGTLVTVSS
VL: AIRMTQSPGTLSLSPGERATLSCRASQSVSSSYLAWYQQRPGQAPRLLIYGTSSRATGIPDRFSGSGSGTDFTLTISRLEPEDFAVYYCQQYGYSVYTFGQGTKVDIK
Consider B7, for which the dissociation constant Kd in assay [1] came to 7.6 nM.

B8: antibody 222 (antibody, V domains shown)
VH: EVQLVESGGGLIQPGGSLRLSCAASGLTVSSNYMSWVRQAPGKGLEWVSVIYSGGSTFYADSVKGRFTISRDNSKNTLYLQMNSLGAEDTAVYYCARGEGSPGNWFDPWGQGTLVTVSS
VL: DVVMTQSPGTLSLSPGERATLSCRASQSVPSSYLAWYQQKPGQAPRLLIYGASTRATGIPDRFSGSGSGTDFTLTISRLEPEDFAVYYCQHYDTSPRFGGGTKVDIK
The molecule B8 showed a dissociation constant (Kd) in assay [2] of 0.29 nM.

B9: Fab 222 (Fab, V domains shown)
VH: EVQLVESGGGLIQPGGSLRLSCAASGLTVSSNYMSWVRQAPGKGLEWVSVIYSGGSTFYADSVKGRFTISRDNSKNTLYLQMNSLGAEDTAVYYCARGEGSPGNWFDPWGQGTLVTVSS
VL: DVVMTQSPGTLSLSPGERATLSCRASQSVPSSYLAWYQQKPGQAPRLLIYGASTRATGIPDRFSGSGSGTDFTLTISRLEPEDFAVYYCQHYDTSPRFGGGTKVDIK
notes: Fab
In assay [1], B9 came in with a dissociation constant (Kd) of 3 nM.

B10: antibody 316 (antibody, V domains shown)
VH: not shown
VL: QAVLTQPPSASGSPGQSVTISCTGTSSDVGGYNYVSWYQQHPGKAPKLMIYEVSKRPSGVPDRFSGSKSGNTASLTVSGLQAEDEADYYCSSYAGSNHWVFGGGTKLTVL
As to B10, the affinity in assay [2], expressed as Kd, was 1.5 nM.

B11: Fab 316 (Fab, V domains shown)
VH: not shown
VL: QAVLTQPPSASGSPGQSVTISCTGTSSDVGGYNYVSWYQQHPGKAPKLMIYEVSKRPSGVPDRFSGSKSGNTASLTVSGLQAEDEADYYCSSYAGSNHWVFGGGTKLTVL
notes: also called 316 Fab (glycosylated)
In turn, B11 returned a Kd in assay [1] of 2 nM.

B12: antibody 398 (antibody, V domains shown)
VH: QVQLVESGGGLVQPGGSLRLSCAASGFTVSSNYMTWVRQAPGKGLEWVSVIYSGGSTYYADSVKGRFTISRDNSKNTLYLQMNSLRADDTAVYYCARDSTADYDFWSGYYVGAFHIWGQGTMVTVSS
VL: QTVLTQPASVSGSPGQSITISCTGTSSDVGGYNYVSWYQQHPGKAPKLMIYEVTKRPSGVPDRFSGSKSGNTASLTVSGLQAEDEADYYCSSYAGSNNWVFGGGTKLTVL
In assay [2], B12 returned a Kd of 1.02 nM.

B13: antibody 58 (antibody, V domains shown)
VH: QVQLVESGGGLVQPGRSLRLSCAASGFTFDDYAMHWVRQPPGKGLEWVSGVSWNSGTIGYADSVKGRFIISRDNAKNSLYLQMNSLKAEDTALYYCAREVGGTFGVLISREGGLDYWGQGTLVTVSS
VL: SYELTQPPSVSVAPGQTARITCGGNTIGSKSVHWYQQRPGQAPVLVVYDDSDRPSGIPERFSGSNSGNTATLTISRVEAGDEADYYCQVWDSSSDRVVFGGGTKLTVL
B13 returned a Kd in assay [2] of 0.3 nM.

B14: Fab 58 (Fab, V domains shown)
VH: QVQLVESGGGLVQPGRSLRLSCAASGFTFDDYAMHWVRQPPGKGLEWVSGVSWNSGTIGYADSVKGRFIISRDNAKNSLYLQMNSLKAEDTALYYCAREVGGTFGVLISREGGLDYWGQGTLVTVSS
VL: SYELTQPPSVSVAPGQTARITCGGNTIGSKSVHWYQQRPGQAPVLVVYDDSDRPSGIPERFSGSNSGNTATLTISRVEAGDEADYYCQVWDSSSDRVVFGGGTKLTVL
For the molecule B14, in assay [1], the dissociation constant (Kd) was determined as 3.4 nM.

B15: antibody 281 (antibody, V domains shown)
VH: QVQLVESGGGLVQPGGSLRLSCAASGFPFSIYWMSWVRQAPGKGLEWVANIKQDGSEKYYVDSVKGRFTISRDNAKNSLYLHMNSLRGEDTAVYYCASRYYDFRPEAWFDYWGQGTLVTVSS
VL: not shown
In assay [2], B15 displayed a dissociation constant (Kd) of 3.2 nM.

B16: Fab 281 (Fab, V domains shown)
VH: QVQLVESGGGLVQPGGSLRLSCAASGFPFSIYWMSWVRQAPGKGLEWVANIKQDGSEKYYVDSVKGRFTISRDNAKNSLYLHMNSLRGEDTAVYYCASRYYDFRPEAWFDYWGQGTLVTVSS
VL: not shown
The molecule B16 returned a Kd in assay [1] of 1 nM.

B17: antibody 40 (antibody, V domains shown)
VH: QVQLVESGGGLVQPGGSLRLSCAVSGFTVSRNYMSWVRQAPGKGLEWVSLIYSGGSTFYADSVKGRFTISRDNSKNTLYLQMNSLRAEDTAVYYCARDLFHRSGYHDYWGQGTLVTVSS
VL: not shown
Consider B17, for which binding in assay [2] was put at a Kd of 0.55 nM.

B18: antibody 40 (antibody, V domains shown)
VH: QVQLVESGGGLVQPGGSLRLSCAVSGFTVSRNYMSWVRQAPGKGLEWVSLIYSGGSTFYADSVKGRFTISRDNSKNTLYLQMNSLRAEDTAVYYCARDLFHRSGYHDYWGQGTLVTVSS
VL: not shown
notes: also called mAb 40
Turning to B18, the Kd in assay [3] turned out to be 1.33 nM.

B19: Fab 45 (Fab, V domains shown)
VH: QVQLVESGGGVVQPGRSLRLSCAASGFTFSTYAMHWVRQAPGKGLEWVAVLSYDGSNKYYADSVKGRFTISRDNSKNTLYLQMNSLRAEDTAVYYCAKGGSYAYYYYMDVWGKGTTVTVSS
VL: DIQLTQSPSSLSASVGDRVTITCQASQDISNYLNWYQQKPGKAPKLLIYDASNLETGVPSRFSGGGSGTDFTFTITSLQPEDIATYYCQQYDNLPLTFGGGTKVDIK
What is called koff is a measure of how fast the partners let go of each other. A word on the kon: it is a measure of how fast the partners come together. A low value points to slower complex formation. On to B19, for which, in assay [1], binding was characterised by a dissociation constant (Kd) of 5.9 nM, the off-rate constant (koff) turned out to be 0.00046 s⁻¹ and the association rate constant (kon) came out at 78000 M⁻¹ s⁻¹.

B20: Fab 165 (Fab, V domains shown)
VH: QVQLVQSGPEVKKPGTSVKVSCKASGFTFTSSAVQWVRQARGQRLEWIGWIVVGSGNTNYAQKFQESVTITRDMSTSTAYMELSSLRSEDTAVYYCAAPHCIGGSCHDAFDIWGQGTMVTVSS
VL: DIVMTQSPGTLSLSPGERATLSCRASQSVRSSYLAWYQQKPGQAPRLLIYGASRRGTGIPDRFSGSGSGTDFTLTISRLEPEDFAVYYCQQYGSSPWTFGQGTKVEIK
In assay [1], B20 came in with a Kd of 4.8 nM.

B21: antibody 253H165L (antibody, V domains shown)
VH: not shown
VL: DIVMTQSPGTLSLSPGERATLSCRASQSVRSSYLAWYQQKPGQAPRLLIYGASRRGTGIPDRFSGSGSGTDFTLTISRLEPEDFAVYYCQQYGSSPWTFGQGTKVEIK
B21 displayed a Kd in assay [2] of 0.73 nM.

B22: Fab 158 (Fab, V domains shown)
VH: EVQLLESGGDLIQPGGSLRLSCAASGVTVSSNYMSWVRQAPGKGLEWVSIIYPGGSTFYADSVKGRFTISRDNSKNTLYLQMHSLRAEDTAVYYCARDLGSGDMDVWGKGTTVTVSS
VL: DIVMTQSPSFLSASVGDRVTITCRASQGISSYLAWYQQKPGKAPKLLIQAASTLQSGVPSRFSGSGSGTEFTLTISSLQPEDFATYYCQQLNSYRYTFGQGTKVEIK
With B22, binding in assay [1] was put at a Kd of 0.7 nM.

B23: antibody 158 (antibody, V domains shown)
VH: EVQLLESGGDLIQPGGSLRLSCAASGVTVSSNYMSWVRQAPGKGLEWVSIIYPGGSTFYADSVKGRFTISRDNSKNTLYLQMHSLRAEDTAVYYCARDLGSGDMDVWGKGTTVTVSS
VL: DIVMTQSPSFLSASVGDRVTITCRASQGISSYLAWYQQKPGKAPKLLIQAASTLQSGVPSRFSGSGSGTEFTLTISSLQPEDFATYYCQQLNSYRYTFGQGTKVEIK
Regarding B23, in assay [2], the equilibrium dissociation constant (Kd) came to 0.53 nM.

B24: antibody 88 (antibody, V domains shown)
VH: QLQLQESGPGLVKPSQTLSLTCTVSGGSISSGSYNWTWIRQPAGKGLEWIGRIYNSGSTNYNPSLKSRVTISVDTSKNQLSLKVRSVTAADTAVYYCARHCSGGTCYPKYYYGMDVWGQGTTVTVSS
VL: QSALTQPPSVSEAPRQRVTISCSGSSSNIGNNAVNWYQQFPGKAPKLLIYYDDLLPSGVSDRFSGSKSGTSASLAISGVQSEDEADYYCAAWDDSLNVVVFGGGTKLTVL
Take B24: binding in assay [2] was put at a Kd of 0.64 nM.
